# Publication PMC3963918, “CCHCR1 Interacts Specifically with the E2 Protein of Human Papillomavirus Type 16 on a Surface Overlapping BRD4 Binding” (PLoS ONE, 2014)
# B1: unnamed (parent)
# chain 1: METLCQRLNVCQDKILTHYENDSTDLRDHIDYWKHMRLECAIYYKAREMGFKHINHQVVPTLAVSKNKALQAIELQLTLETIYNSQYSNEKWTLQDVSLEVYLTAPTGCIKKHGYTVEVQFDGDICNTMHYTNWTHIYICEEASVTVVEGQVDYYGLYYVHEGIRTYFVQFKDDAEKYSKNKVWEVHAGGQVILCPTSVFSSNEVSSPEIIRQHLANHPAATHTKAVALGTEETQTTIQRPRSEPDTGNPCHTTKLLHRDSVDSAPILTAFNSSHKGRINCNSNTTPIVHLKGDANTLKCLRYRFKKHCTLYTAVSSTWHWTGHNVKHKSAIVTLTYDSEWQRDQFLSQVKIPKTITVSTGFMSI
# chain 2: MDQNNSLPPYAQGLASPQGAMTPGIPIFSPMMPYGTGLTPQPIQNTNSLSILEEQQRQQQQQQQQQQQQQQQQQQQQQQQQQQQQQQQQQQQQQQAVAAAAVQQSTSQQATQGTSGQAPQLFHSQTLTTAPLPGTTPLYPSPMTPMTPITPATPASESSGIVPQLQNIVSTVNLGCKLDLKTIALRARNAEYNPKRFAAVIMRIREPRTTALIFSSGKMVCTGAKSEEQSRLAARKYARVVQKLGFPAKFLDFKIQNMVGSCDVKFPIRLEGLVLTHQQFSSYEPELFPGLIYRMIKPRIVLLIFVSGKVVLTGAKVRAEIYEAFENIYPILKGFRKTT
# B2: unnamed (parent)
# chain 1: B1 chain 1
# chain 2: KAGRAEAEGLRAALAGAEVVRKNLEEGSQRELEEVQRLHQEQLSSLTQAHEEALSSLTSKAEGLEKSLSSLETRRAGEAKELAEAQREAELLRKQLSKTQEDLEAQVTLVENLRKYVGEQVPSEVHSQTWELERQKLLETMQHLQEDRDSLHATAELLQVRVQSLTHILALQEEELTRKVQPSDSLEPEFTRKCQSLLNRWREKVFALMVQLKAQELEHSDSVKQLKGQVASLQEKVTSQSQEQAILQRSLQDKAAEVEVERMGAKGLQLELSRAQEARRRWQQQTASAEEQLRLVVNAVSSSQIWLETTMAKVEGAAAQLPSLNNRLSYAVRKVHTIRGLIARKLALAQLRQESCPLPPPVTDVSLELQQLREERNRLDAELQLSARLIQQEVGRAREQGEAERQQLSKVAQQLEQELQQTQESLASLGLQLEVARQGQQESTEEAASLRQELTQQQELYGQALQEKVAEVETRLREQLSDTERRLNEARREHAKAVVSLRQIQRRAAQEKERSQELRRLQEEARKEEGQRLARRLQELERDKNLMLATLQQEGLLSRYKQQRLLTVLPSLLDKKKSVVSSPRPPECSASAPVAAAVPTRESIKGSLSVLLDDLQDLSEAISKEEAVCQGDNLDRCSSSNPQMSS
# Variants of: B1
# Assay: GPCA
# Conditions: with partner chain of the complex shown;; read off a plot
row,Variant,ratio to parent
1,chain 1 E39A,1.2
2,chain 1 I73A,0.97
3,chain 1 R37A,1.1
4,chain 1 R27D,0.91
5,chain 1 N181T,0.95

# Variants of: B2
# Assay: GPCA
# Conditions: with partner chain of the complex shown;; read off a plot
row,Variant,ratio to parent
1,chain 1 R37A,0.06
2,chain 1 I73A,0.11
3,chain 1 N181T,0.93
4,chain 1 R27D,0.66
5,chain 1 E39A,0.92
